The source of these data is the supplement of paper PMC7877785.

± gives the uncertainty stated by the source.

The data set in a line: self-splicing fitness, log relative to wild type (ln ratio); higher = more splicing; Tetrahymena group I intron in knt gene, E. coli kanamycin selection, DiMSum; sequences stand for … in CUCUCU…GGAGGGAAAAGUUAUCAGGCAUGCACCUGGUAGCUAGUCUUUAAACCAAUAGAUUGCAUCGGUUUAAAAGGCAAGACCGUCAAAUUGCGGGAAAGGGGUCAACAGCCGUUCAGUACCAAGUCUCAGGGGAAACUUUGAGAUGGCCUUGCAAAGGGUAUGGUAAUAAGCUGACGGACAUGGUCCUAACCACGCAGCCAAGUCCUAAGUCAACAGAUCUUCUGUUGAUAUGGAUGCAGUUCACAGACUAAAUGUCGGUCGGGGAAGAUGUAUUCUUCUCAUAAGAUAUAGUCGGACCUCUCCUUAAUGGGAGCUAGCGGAUGAAGUGAUGCAACACUGGAGCCGCUGGGAACUAAUUUGUAUGCGAAAGUAUAUUGAUUAGUUUUGGAGUACUCGUGGUCG
In outline:
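The eight P1ex-region nucleotides of an intron in the knt kanamycin-resistance gene on pET-22b(+) were all randomised and the library put into E. coli BL21(DE3). Six replicate transformations were grown overnight at 37°C or 30°C on LB agar with or without 25 μg/mL kanamycin, together with 100 μg/mL carbenicillin, 50 μM IPTG and 0.2% rhamnose. Colonies were pooled and amplicon-sequenced on an Illumina HiSeq 2500. Fitness from DiMSum is the error-weighted combination of wild-type-normalised replicate fold changes, kanamycin over none.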

UAUAAGCAAUAUUACGCGGA: the “self-splicing fitness (ln)” value (30 °C) is -2.14 ± 0.18 and the “self-splicing fitness (ln)” value (37 °C) is -0.954 ± 0.16.

On to AAGUAGCAAUAUUACGGCUC, for which the “self-splicing fitness (ln)” value was -0.15 ± 0.12 (30 °C) and 0.32 ± 0.15 (37 °C).

UAACAGCAAUAUUACGCAUG: the “self-splicing fitness (ln)” value (30 °C) was -1.43 ± 0.086 and the “self-splicing fitness (ln)” value (37 °C) is -0.695 ± 0.099.

For the sequence CAGUAGCAAUAUUACGAGAG, the “self-splicing fitness (ln)” value was -3.95 ± 0.24 (30 °C) and -2.76 ± 0.19 (37 °C).

For the sequence GCUCAGCAAUAUUACGUUUG, the “self-splicing fitness (ln)” value (30 °C) is -2.64 ± 0.13 and the “self-splicing fitness (ln)” value (37 °C) was -1.8 ± 0.15.

Consider AGUGAGCAAUAUUACGGUGG, for which the “self-splicing fitness (ln)” value is, setting by setting: (30 °C) -3.06 ± 0.19; (37 °C) -2.69 ± 0.3.

With CGAAAGCAAUAUUACGUGCC, the “self-splicing fitness (ln)” value is -3.18 ± 0.17 (30 °C) and -1.95 ± 0.17 (37 °C).

Take GACUAGCAAUAUUACGAGAC: the “self-splicing fitness (ln)” value is -3.56 ± 0.43 (30 °C) and -1.76 ± 0.27 (37 °C).

As to UGCGAGCAAUAUUACGGCGU, the “self-splicing fitness (ln)” value is -2.58 ± 0.18 (30 °C) and -0.48 ± 0.2 (37 °C).

Regarding GGAGAGCAAUAUUACGUGGA, under “37 °C”, the “self-splicing fitness (ln)” value is -3.26 ± 0.32.

UAGUAGCAAUAUUACGAACU: the “self-splicing fitness (ln)” value is, setting by setting: (30 °C) -0.595 ± 0.16; (37 °C) -1.05 ± 0.15.

With ACGAAGCAAUAUUACGUCGG, the “self-splicing fitness (ln)” value was -1.67 ± 0.1 (30 °C) and -1.65 ± 0.11 (37 °C).

Take UCUAAGCAAUAUUACGGGAU: the “self-splicing fitness (ln)” value is, setting by setting: (30 °C) -2.77 ± 0.14; (37 °C) -2.67 ± 0.18.

Regarding UAUAAGCAAUAUUACGGCAC, the “self-splicing fitness (ln)” value by setting is: (30 °C) -1.53 ± 0.17; (37 °C) -0.422 ± 0.23.

For UGUAAGCAAUAUUACGUGGG, the “self-splicing fitness (ln)” value (30 °C) was -3.6 ± 0.19 and the “self-splicing fitness (ln)” value (37 °C) is -2.42 ± 0.22.

Regarding AGCAAGCAAUAUUACGCGAC, the “self-splicing fitness (ln)” value is, setting by setting: (30 °C) -2.95 ± 0.25; (37 °C) -2.35 ± 0.26.

Regarding GUGAAGCAAUAUUACGCUUA, the “self-splicing fitness (ln)” value is -1.49 ± 0.087 (30 °C) and -0.459 ± 0.13 (37 °C).

Regarding AAAUAGCAAUAUUACGUAAU, the “self-splicing fitness (ln)” value was -3.04 ± 0.12 (30 °C) and -1.75 ± 0.12 (37 °C).

Regarding GAAAAGCAAUAUUACGGUGG, the “self-splicing fitness (ln)” value was -3.78 ± 0.2 (30 °C) and -1.66 ± 0.15 (37 °C).

Consider UGCUAGCAAUAUUACGCACU, for which the “self-splicing fitness (ln)” value (30 °C) was -2.3 ± 0.11 and the “self-splicing fitness (ln)” value (37 °C) was -1.11 ± 0.11.

Regarding CGCUAGCAAUAUUACGCGAG, the “self-splicing fitness (ln)” value is -2.93 ± 0.28 (30 °C) and -2.56 ± 0.21 (37 °C).

In the case of GCUUAGCAAUAUUACGAGGA, the “self-splicing fitness (ln)” value by setting is: (30 °C) -0.769 ± 0.11; (37 °C) -0.781 ± 0.1.

For CAUAAGCAAUAUUACGAAUA, the “self-splicing fitness (ln)” value by setting is: (30 °C) -1.84 ± 0.24; (37 °C) -2.9 ± 0.43.

On to GCUUAGCAAUAUUACGACUA, for which the “self-splicing fitness (ln)” value is -1.34 ± 0.22 (30 °C) and -0.593 ± 0.2 (37 °C).

Consider UAGUAGCAAUAUUACGAGUC, for which the “self-splicing fitness (ln)” value (30 °C) was -4.06 ± 0.33 and the “self-splicing fitness (ln)” value (37 °C) is -2.03 ± 0.23.

As for GCAGAGCAAUAUUACGGUGG, the “self-splicing fitness (ln)” value (30 °C) is -3.65 ± 0.33 and the “self-splicing fitness (ln)” value (37 °C) was -2.21 ± 0.21.

Regarding UGCGAGCAAUAUUACGGGAG, the “self-splicing fitness (ln)” value (30 °C) is -4.04 ± 0.19 and the “self-splicing fitness (ln)” value (37 °C) was -2.61 ± 0.17.

Consider ACAGAGCAAUAUUACGCGCA, for which the “self-splicing fitness (ln)” value reads like this: (30 °C) -3.09 ± 0.26; (37 °C) -0.798 ± 0.18.

For UAGCAGCAAUAUUACGUACA, the “self-splicing fitness (ln)” value by setting is: (30 °C) -1.16 ± 0.091; (37 °C) -0.0473 ± 0.1.

In the case of AAGUAGCAAUAUUACGCAUC, the “self-splicing fitness (ln)” value by setting is: (30 °C) -3.84 ± 0.47; (37 °C) -1.08 ± 0.23.

CAUGAGCAAUAUUACGUGAA: the “self-splicing fitness (ln)” value is -3.86 ± 0.3 (30 °C) and -2.53 ± 0.29 (37 °C).

UAAAAGCAAUAUUACGUUAC: the “self-splicing fitness (ln)” value (30 °C) was -3.71 ± 0.22 and the “self-splicing fitness (ln)” value (37 °C) is -2.78 ± 0.21.

Regarding GUUCAGCAAUAUUACGCUAU, the “self-splicing fitness (ln)” value (30 °C) was -1.32 ± 0.081 and the “self-splicing fitness (ln)” value (37 °C) was -0.451 ± 0.092.

Turning to UAAAAGCAAUAUUACGAGUG, the “self-splicing fitness (ln)” value by setting is: (30 °C) -0.615 ± 0.057; (37 °C) 0.0674 ± 0.084.

With AUUUAGCAAUAUUACGAGAG, under “37 °C”, the “self-splicing fitness (ln)” value is -2.7 ± 0.3.

GCACAGCAAUAUUACGGAAC: the “self-splicing fitness (ln)” value by setting is: (30 °C) -1.06 ± 0.086; (37 °C) -0.752 ± 0.12.

Turning to CUGCAGCAAUAUUACGCGGG, the “self-splicing fitness (ln)” value (30 °C) was -3.94 ± 0.23 and the “self-splicing fitness (ln)” value (37 °C) was -1.65 ± 0.18.

On to GCCAAGCAAUAUUACGUCUU, for which the “self-splicing fitness (ln)” value was -3.28 ± 0.2 (30 °C) and -2.38 ± 0.16 (37 °C).
